From publication PMC7483473

Target: mNeonGreen labeled metabotropic glutamate receptor 3, Q14832
Experiment: stepwise photobleaching (subunit counting) of single complexes by TIRF; SPReAD: expressing cells co-plated with VSVG-U2OS cells (typically 10:1), fused at pH 5.5, syncytia fixed with 4% paraformaldehyde, room temperature; mGluR lines were HEK293T fused with U2OS
Conditions: remark: other sources report otherwise

B1: mNeonGreen labeled metabotropic glutamate receptor 3, Q14832 23-879 (receptor)
chain: LGDHNFLRREIKIEGDLVLGGLFPINEKGTGTEECGRINEDRGIQRLEAMLFAIDEINKDDYLLPGVKLGVHILDTCSRDTYALEQSLEFVRASLTKVDEAEYMCPDGSYAIQENIPLLIAGVIGGSYSSVSIQVANLLRLFQIPQISYASTSAKLSDKSRYDYFARTVPPDFYQAKAMAEILRFFNWTYVSTVASEGDYGETGIEAFEQEARLRNICIATAEKVGRSNIRKSYDSVIRELLQKPNARVVVLFMRSDDSRELIAAASRANASFTWVASDGWGAQESIIKGSEHVAYGAITLELASQPVRQFDRYFQSLNPYNNHRNPWFRDFWEQKFQCSLQNKRNHRRVCDKHLAIDSSNYEQESKIMFVVNAVYAMAHALHKMQRTLCPNTTKLCDAMKILDGKKLYKDYLLKINFTAPFNPNKDADSIVKFDTFGDGMGRYNVFNFQNVGGKYSYLKVGHWAETLSLDVNSIHWSRNSVPTSQCSDPCAPNEMKNMQPGDVCCWICIPCEPYEYLADEFTCMDCGSGQWPTADLTGCYDLPEDYIRWEDAWAIGPVTIACLGFMCTCMVVTVFIKHNNTPLVKASGRELCYILLFGVGLSYCMTFFFIAKPSPVICALRRLGLGSSFAICYSALLTKTNCIARIFDGVKNGAQRPKFISPSSQVFICLGLILVQIVMVSVWLILEAPGTRRYTLAEKRETVILKCNVKDSSMLISLTYDVILVILCTVYAFKTRKCPENFNEAKFIGFTMYTTCIIWLAFLPIFYVTSSDYRVQTTTMCISVSLSGFVVLGCLFAPKVHIILFQPQKNVVTHRLHLNRFSVSGTGTTYSQSSASTYVPTVCNGREVLDSTTSSL
Question: For B1, which fraction by stepwise photobleaching (dimer fraction, as the sentence seems to mean) is on record?
Answer: The fraction by stepwise photobleaching (dimer fraction, as the sentence seems to mean) was 33.5%.
